The text below walks through data of patent US20190353654A1 (published 2019).

One assay deals with human insulin (human, UniProt P01308 25-54; P01308 90-110). Description: MicroScale Thermophoresis, 5 nM labeled receptor, insulin titrated.
Assay [1] has as its target T1, HIV-1 coat protein gp41-120 (HIV-1).
T1 construct: also called HIV coat proteins gp41-120; HIV surface protein gp41-120
The assay can be described thus: MicroScale Thermophoresis, labeled receptor, ligand titrated, in buffer (1x PBS, 5 mM DTT).

For assay [2], the target named is T2, CXCL11 (UniProt O14625 22-94).
T2 sequence (looked up): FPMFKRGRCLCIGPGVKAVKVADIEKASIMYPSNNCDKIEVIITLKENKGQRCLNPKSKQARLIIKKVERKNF
The description is as above.

In assay [3] the target is T1, HIV-1 coat protein gp41-120. Description: MicroScale Thermophoresis, labeled receptor, ligand titrated, in 50% human serum.
Assay [4] has as its target T2, CXCL11. The description is as above.
For assay [5], the target named is T1, HIV-1 coat protein gp41-120. Described as above. This is another data set of the same source.
Assay [6] addresses T3, CCL28 (UniProt Q9NRJ3 20-127).
T3 construct: range 20-127; also called CCL2820-127
T3 sequence (looked up): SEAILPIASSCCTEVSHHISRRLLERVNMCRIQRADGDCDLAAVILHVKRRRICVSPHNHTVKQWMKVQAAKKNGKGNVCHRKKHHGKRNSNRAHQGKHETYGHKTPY
Description: MicroScale Thermophoresis, labeled receptor, ligand titrated, in buffer (1x PBS, 5 mM DTT).

Assay [7] deals with T4, CCL27 (UniProt Q9Y4X3 25-112, limits assumed).
T4 sequence (looked up): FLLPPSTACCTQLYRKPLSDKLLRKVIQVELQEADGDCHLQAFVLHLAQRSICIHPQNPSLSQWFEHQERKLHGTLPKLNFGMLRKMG
The description is as above.

Assay [8] deals with T3, CCL28. Description: MicroScale Thermophoresis, labeled receptor, ligand titrated, in 50% human serum.
For assay [9], the target named is T4, CCL27. Described as above.

B1: CXCR7^QTY (receptor)
chain: MDLHLFDYSEPGNFSDISWPCNSSDCIVVDTVMCPNMPNKSTQQYTQSYTYTYTYTTGMTANSVVVWVNIQAKTTGYDTHCYTQNQATADQWTTQTTPTWTTSLVQHNQWPMGELTCKTTHQTYSTNQYGSTYYQTCMSVDRYLSITYFTNTPSSRKKMVRRTTCTQTWQQAYCTSQPDTYYQKTVTSASNNETYCRSFYPEHSIKEWLIGMEQTSTTQGYATPYSTTATYYYQLARAISASSDQEKHSSRKTTYSYTTTYQTCWQPYHTATQLDIFSILHYIPFTCRLEHALFTAQHTTQCQSQTHCCTNPTQYSYTNRNYRYELMKAFIFKYSAKTGLTKLIDASRVSETEYSALEQSTK
modifications: The receptor was labelled with NT647 (RED-NHS dye on lysines, positions not defined) for MST. The letters do not carry this.
notes: Expressed in SF9 insect cells and purified without detergent; not shown: C-terminal His tag
Regarding B1, the binding result with human insulin is given as “no binding (tested: 0.153 nM-5,000 nM insulin)”. Moreover, the Kd in [1] turned out to be 1.2 nM; with CXCL11 [2] it was 16 nM; in assay [3], 7 nM; with CXCL11 [4], 28 nM.

B2: CCR5^QTY (receptor, not shown: small tags and cut ends)
chain: MDYQVSSPIYDINYYTSEPCQKINVKQIAARQQPPQYSQTFTYGFTGNMQTTQTQINCKRLKSMTDIYLQNQAISDQYYQQTTPYWAHYAAAQWDFGNTMCQQQTGQYFTGYYSGTYYTTQQTTDRYLAVVHAVFALKARTTTYGTTTSTTTWTTATYASQPGTTYTRSQKEGLHYTCSSHFPYSQYQFWKNFQTLKITIQGQVQPQQTMVTCYSGTQKTLLRCRNEKKRHRAVRQTFTTMTTYYQYWAPYNTTQQLNTFQEFFGLNNCSSSNRLDQAMQVTETQGMTHCCTNPTIYAYVGEKFRNYLLVFFQKHIAKRFCKCCSIFQQEAPERASSVYTRSTGEQEISVGL
modifications: Receptor labelled with NT647 dye (RED-NHS, on amines) for MST; sites not specified
notes: Expressed in SF9 insect cells and purified without detergent; also called detergent-free CCR5 variant
Consider B2, for which the binding result with human insulin is listed as “no binding (tested: 0.153 nM-5,000 nM insulin)”. Also, the figures for the Kd in assay [1] and in assay [5] were 3.1 nM and 4.3 nM, respectively.

B3: CXCR4^QTY (receptor, not shown: small tags and cut ends)
chain: MEGISIYTSDNYTEEMGSGDYDSMKEPCFREENANFNKTYQPTTYSTTYQTGTTGQGQTTQTMGYQKKQRSMTDKYRQHQSTADQQYTTTQPYWATDATANWYFGNFQCKATHTTYTTQQYSSTQTQAYTSQDRYLAIVHATNSQRPRKQQAEKTTYTGTWTPAQQQTTPDYTYANVSEADDRYICDRFYPNDLWTTTYQYQHTMTGQTQPGTTTQSCYCTTTSKLSHSKGHQKRKALKTTTTQTQAYYACWQPYYTGTSTDSFILLEIIKQGCEFENTVHKWTSTTEAQAYYHCCQQPTQYAYQGAKYKTSAQHAQTSTSRGSSQKTQSKGKRGGHSSTSTESESSSFHSS
modifications: Receptor labelled with NT647 dye (RED-NHS, on amines) for MST; sites not specified
Regarding B3, the binding result with human insulin is given as “no binding (tested: 0.153 nM-5,000 nM insulin)”. Further, the Kd in [1] worked out at 117 nM; in assay [3], 185 nM.

B4: CCR10^QTY (receptor, not shown: small tags and cut ends)
chain: MGTEATEQVSWGHYSGDEEDAYSAEPLPELCYKADVQAFSRAFQPSVSLTVAAQGQAGNGQTQATHQAARRAARSPTSAHQQQQAQADQQQAQTQPYAAAGALQGWSLGSATCRTTSGQYSASYHAGYQYQACTSADRYVAIARALPAGPRPSTPGRAHQTSTTTWQQSQQQAQPAQQYSQDGQREGQRRCRLIFPEGLTQTVKGASATAQTAQGYAQPQGTMTACYALLGRTLLAARGPERRRALRTTTAQTAAYTTQQQPYSQAQQQDTADLLAARERSCPASKRKDVAQQTTSGQAQARCGQNPTQYAYQGLRFRQDLRRLLRGGSCPSGPQPRRGCPRRPRLSSCSAPTETHSLSWDN
modifications: Receptor labelled with NT647 dye (RED-NHS, on amines) for MST; sites not specified
notes: Expressed in SF9 insect cells and purified without detergent
Consider B4, for which, in the assay with human insulin, the binding result was “no binding (tested: 0.153 nM-5,000 nM insulin)”. In addition, the Kd amounted to 9.3 nM in the assay with CCL28 [6], 3.1 nM with CCL27 [7], 21 nM in the assay with CCL28 [8] and 5.6 nM in the assay with CCL27 [9].
